# Laboratory results taken from the RNAGym collection of RNA variant scans (doi:10.7554/elife.90254).
# B1: LINE1-full (parent)
# chain: UACGUAGGUGGUUUUCCCCUGAUAGUGCUAAGGGGGCCUGGAAGUUUGGACUGGGCAGAGCUCAACACAGCGUGGCAAAGUGGCUGUGGCUAGACUGCCUCUCUGGAUUCCUCGUCACUCAGCAGGGCAUCUCUGAGAGAAAUGCC
# Variants of: B1
# Experiment: self-cleavage, relative activity (ratio to wild type); higher = more cleavage; in vitro, sequencing; the parent is a self-cleaving ribozyme
row,Variant,self-cleavage
1,UACGUAGGUGGUUUUCCCCUGAUAGUGCUAAGGGGGCCUGGAAGUUUGGAUUGGGCAGAGCUCAACACUGCGUGGCAAAGUGGCUGUGGCUAGACUGCCUCUCUGGAUUCCUCGUCACUCAGCAGGGCAUCUCUGAGAGAAAUGCC [C51U A69U],0.04
2,UACGUAGGUGGUUUUCCCCUGAUAGUGCUAAGGGGGCCUGGACGUUUGGACUGGGCAGAGCUCAGCACAGCGUGGCAAAGUGGCUGUGGCUAGACUGCCUCUCUGGAUUCCUCGUCACUCAGCAGGGCAUCUCUGAGAGAAAUGCC [A43C A65G],0
3,UACGUAGGUGGUUUUCCCCUGAUAGUGCUAAGGGGGCCUGGAAGUUUGGACUGGGCAGAGCUCAACGCAGCGUGGCAAAGUGGCUGUGGCUAGACUGCCUCUCUGGGUUCCUCGUCACUCAGCAGGGCAUCUCUGAGAGAAAUGCC [A67G A107G],0.25
4,UACGAAGGUGGUUUUCCCCUGAUAGUGCUAAGGGGGCCUGGAAGUUUGGACUGGGCAGAGCUCAACACAGCGUGGCAAAGUGGCUGAGGCUAGACUGCCUCUCUGGAUUCCUCGUCACUCAGCAGGGCAUCUCUGAGAGAAAUGCC [U5A U87A],0.15
5,UACGUAGGUGGUUUUCCCCUGAUAGUGCUAAGGGGGCCUGGAAGUUUGGACCGGGCAGAGCUCAACACAGCGUGGCAAAGUGGCUGUGGCUAGACUGCAUCUCUGGAUUCCUCGUCACUCAGCAGGGCAUCUCUGAGAGAAAUGCC [U52C C99A],0.27
6,UACGUAGGUGGUUUUCCCCUGAUAGUGCUAAGGGGGCCUGGAAGUUUGGACUGGGCAGAGCUCAACACAGCGUGGCAAAGUGGCUGUGGCUAGACUGCCUCUCUGGAUUCCUCGUCACACAGCAGGGCUUCUCUGAGAGAAAUGCC [U119A A129U],1.37
7,UACGCAGGUGGUUUUCCCCUGAUAGUGCUAAGGGGGCCUGGAAGUUUGGACUGGGCAGAGCUCAAUACAGCGUGGCAAAGUGGCUGUGGCUAGACUGCCUCUCUGGAUUCCUCGUCACUCAGCAGGGCAUCUCUGAGAGAAAUGCC [U5C C66U],0.13
8,UACGUAGGUGGUUUUCCCCUGAUAGUGCUAAGGGGGCCUGGAAGGUUGGACUGGGCAGAGCUCAACAUAGCGUGGCAAAGUGGCUGUGGCUAGACUGCCUCUCUGGAUUCCUCGUCACUCAGCAGGGCAUCUCUGAGAGAAAUGCC [U45G C68U],0.12
9,UACGUAGGUGGUUCUCCCCUGAUAGUGCUAAGGGGGCCUGGAAGUUUGGACUGGGCAGAGCUCAACACAGCGUGGCAAAGUGGCUGGGGCUAGACUGCCUCUCUGGAUUCCUCGUCACUCAGCAGGGCAUCUCUGAGAGAAAUGCC [U14C U87G],0.31
10,UACGUAGGUGGUUUUCCCCUGAUAGUGCUAAGGGGGCCUGGAAGUUUGGACUGGGCAGAGCUCAACACAGCGUGACAAAGUGGCUGUGGCUAGACUGCCACUCUGGAUUCCUCGUCACUCAGCAGGGCAUCUCUGAGAGAAAUGCC [G75A U100A],0.42
11,UACGUAGGUGGUUUUCCCCUGAUAGUGCUAAGGGGGCCUGGAAGUUUGGACUGGGCAGAGCUCAACCCAGCGUGGCAAAGUGGCUGUGGCUAGACUGCCUCUCCGGAUUCCUCGUCACUCAGCAGGGCAUCUCUGAGAGAAAUGCC [A67C U104C],0.04
12,UACUUAGGUGGUUUUCCCCUGAUAGUGCUAAGGGGGCCUGGAAGUUUGGACUGGGCAGAGCUCAACACAGCGCGGCAAAGUGGCUGUGGCUAGACUGCCUCUCUGGAUUCCUCGUCACUCAGCAGGGCAUCUCUGAGAGAAAUGCC [G4U U73C],2.45
13,UACGUAGGUGGUUUUCCCCUGCUAGUGCUGAGGGGGCCUGGAAGUUUGGACUGGGCAGAGCUCAACACAGCGUGGCAAAGUGGCUGUGGCUAGACUGCCUCUCUGGAUUCCUCGUCACUCAGCAGGGCAUCUCUGAGAGAAAUGCC [A22C A30G],1.18
14,UACGUAGGUGGAUUUCCCCUGAUAGUGCUAAGGGGGCCUGGAAGUUUGGACUGGGCAGAGCUCAACACAGCGUGGCAAAGUGGCUGUGGCUAGACUGCCUCUCUGGAUUCCUCGUCACUCAGUAGGGCAUCUCUGAGAGAAAUGCC [U12A C123U],1.38
15,UACGUAGGUGGUUUUCCCCUGAUAGUGCUAAGGGGGCCUGGAAGUUUGGACUGGGCAGAGCUCCACACAGCGUGGCAAAGUGGCUGUGGCUAGACUGCCUCUCUGGAUUCCUCGUCACUCAGCAGGGCAUCUCUGAGAGAAAAGCC [A64C U143A],0.25
16,UACGUAGGUGGUUUCCCCCUGAUAGUGCUAAGGGGGCCUGGAAGUUUGGACUGGGCAGAGCUCAACACAACGUGGCAAAGUGGCUGUGGCUAGACUGCCUCUCUGGAUUCCUCGUCACUCAGCAGGGCAUCUCUGAGAGAAAUGCC [U15C G70A],0.33
17,UACGUAGGUGGUUUUCCCCUGAUAGUGCUAAGGGGGGCUGGAAGUUUGGACUGGGCAGAGCUCAACACAGCGUGGCAAAGUGGCUGUGGCUAGACUGCCUCUCUGGAUUCCUCGUCACUCAGCAGGGCAUCCCUGAGAGAAAUGCC [C37G U132C],0.94
18,UACGUAGGUGGUUUUCCCCUGAUAGUGCUAAUGGGGCCUGGAAGUUUGGACUGGGCAGAGCUCAACACAGCGUGGCAAAGUGGCUGUGGCUAGACUGCCUCUCUGGAUUCCUUGUCACUCAGCAGGGCAUCUCUGAGAGAAAUGCC [G32U C113U],0.49
19,UACGUAGGUGGUUUUCCCCCGAUAGUGCUAAGGGGGCCUGGAAGUUUGGACUGGGCAGAGCUCAACACAGCGUGGCAAAGUGACUGUGGCUAGACUGCCUCUCUGGAUUCCUCGUCACUCAGCAGGGCAUCUCUGAGAGAAAUGCC [U20C G83A],1
20,UACGUAGGUGGUUUUCCCCUGAUAGUGCUAAGGGGGCCAGGAAGUUUGGACUGGGCAGAGCUCAACACAGCGUGGCAAAGUGGCUAUGGCUAGACUGCCUCUCUGGAUUCCUCGUCACUCAGCAGGGCAUCUCUGAGAGAAAUGCC [U39A G86A],0.08

row,Variant,self-cleavage
1,UACGUAGGUGGUUUUCCCCUGAUAGUGCUAGGGGGGCCUGGAAGUUUGGACUGGGCAGAGCUCAACACAGCGUGGCAAAGUGGCUGUGGCUAGACUGCCUCUCUGGAUUCCUCGUCACCCAGCAGGGCAUCUCUGAGAGAAAUGCC [A31G U119C],1.94
2,UACGUAGGUGGUUUUCCCCUGAUAGUACUAAGGGGGCCUGGAAGUUUGGACUGGGCAGAGCUCAACACAGCGUGGCAAAGUGGCUGUGGCUAGACUGCCUCUCUGGAUUCCUCGUCACUCAGCAGGGCAUCUCCGAGAGAAAUGCC [G27A U134C],1.58
3,UACGUAGGUGGUUUUCCCCUGAUAGCGCUAAGGGGGCCUGGAAGUUUGGACUGGGCAGAGCUCAACACAGCGUGUCAAAGUGGCUGUGGCUAGACUGCCUCUCUGGAUUCCUCGUCACUCAGCAGGGCAUCUCUGAGAGAAAUGCC [U26C G75U],0.57
4,UACGUAGGUGGUUUUCCCCUGAUAGUGCUAAGGGGGCCUGGAAGUUUGGACUGGGCAGAGCUCAACACAGCGUGGCAAAGUGGCUGUGGCUAGACUGCCUCUCUGGAUUCCUCGUCACUUAGCAGGGCAUCUCUGAGAGAAGUGCC [C120U A142G],1.59
5,UACGUAGGUGGUUCUCCCCUGAUAGUGCUAAGGGGGCCUGGAAGUUUGGACUGGGCAGAGCUCAACACAGCGUGGCAAAGUGGCUGUGGCUAGACUGCCUCUCUGGAUUCCUCGUCACUCAGCAGGGCAUCUCUGAGAUAAAUGCC [U14C G139U],1.63
6,UACGUAGGUGGUUUUCCCUUGAUAGUGCUAAGGGGGCCUGGAAGUUUGGACUGGGCAGAGCUCAACACAGCGUGGCAAAGUGGCUGUGGCUAGACUGCCUCUCUGGAUUCCUCGUCACCCAGCAGGGCAUCUCUGAGAGAAAUGCC [C19U U119C],1.38
7,UACGUAGGAGGUUUUCCCCUGAUAGUGCUAAGGGGGCCUGGAAGUUUGGACUGGGCAGAGCUCAACACAGCGUGGCAAAGUGGCUGUGGCUAGACUGCCUCUCUGGAUUCCUCGUCACUCAGCAGGGCAUCUCUGAGAGAAAAGCC [U9A U143A],1.34
8,UACGUAGGUGGGCUUCCCCUGAUAGUGCUAAGGGGGCCUGGAAGUUUGGACUGGGCAGAGCUCAACACAGCGUGGCAAAGUGGCUGUGGCUAGACUGCCUCUCUGGAUUCCUCGUCACUCAGCAGGGCAUCUCUGAGAGAAAUGCC [U12G U13C],0.95
9,UACCUAGGUGGUUUUCCCCUGAUAGUGCUAAGGGGGCCUGGAAGUUUGGACUGGGCAGAGCUCAGCACAGCGUGGCAAAGUGGCUGUGGCUAGACUGCCUCUCUGGAUUCCUCGUCACUCAGCAGGGCAUCUCUGAGAGAAAUGCC [G4C A65G],0.08
10,UACGUAGGUGGUUUUCCCCUGAUAGUGCUAAGGGGGCCUGGAAGUUUGGACUGGGCAGAGCUCAACACAGCGUGGCAAAGUGGCUGUGGCUAGACUGCCUCUCUGGAUUCCUCGUCACACAGCAGAGCAUCUCUGAGAGAAAUGCC [U119A G126A],1.3
11,UACGUAGGUGGUUUUCCCCUGAAAGUGCUAAGGGGGCCUGGAAGUUUGGACUGGGCAGAGCUCAACGCAGCGUGGCAAAGUGGCUGUGGCUAGACUGCCUCUCUGGAUUCCUCGUCACUCAGCAGGGCAUCUCUGAGAGAAAUGCC [U23A A67G],0.71
12,UACGUAGGUGGUUUUCCCCUGAUAGUGCUAAGGGGGCCUGGAAGUUUGGACAGGGCAGAGCUCAACACAGCGUGGCAAAGUGGCUGUGGCUAGACUGCCUCUCUGGAUUCCUCGUCACUCAGCAGCGCAUCUCUGAGAGAAAUGCC [U52A G126C],1.81
13,UACGUAGGUGGUUUUCCCCAGAUAGUGCUAAGGGGGCCUGGAAGUUUGGACUGGGCAGAGCUCAACACAGCGUGGCAAAGUGGCUGUGGCUAGACUGCCUCUCUGGAUUCCUCGUCACUCAGCAGGGCAUCUCUGAGAGAGAUGCC [U20A A141G],1.43
14,UACGUAGGUGGUUUUCCCCUGAUAGUGCUAAGGGGGCCUGGAAGUUUGGACUGGGCAGAGCUCAACACAGCGUGGCAAAGUGGCUGUGGCUAGACUGCCUCUCUGGAUUCCUCGUCACUCAGCAGAGCUUCUCUGAGAGAAAUGCC [G126A A129U],2.47
15,UACGUAGGUGGUUUUCCCCUGAUGGUGCUAAGGGGGCCUGGAAGUUUGGACUGGGCAGAGCUCAACACAGCGUGGCAAAGUGGCUGCGGCUAGACUGCCUCUCUGGAUUCCUCGUCACUCAGCAGGGCAUCUCUGAGAGAAAUGCC [A24G U87C],0.19
16,UACGUAGGUGGUUUUCCCCUGAUAGUGCUAAGGGGGCCUGGAAGUUUGGACUGGGCAGAGCUCAGCACAGCGUGGCAAAGUGGCUGUGGCUAGACUGCCUCUCUGGAUUCCUCGUCACUCAGCAGGGCAUCUCUGAGGGAAAUGCC [A65G A138G],0.06
17,UACGUAGGUGGUAAUCCCCUGAUAGUGCUAAGGGGGCCUGGAAGUUUGGACUGGGCAGAGCUCAACACAGCGUGGCAAAGUGGCUGUGGCUAGACUGCCUCUCUGGAUUCCUCGUCACUCAGCAGGGCAUCUCUGAGAGAAAUGCC [U13A U14A],1.14
18,UACGUAUGUGGUUUUCCCCUGAUAGUGCUAAGGGGGCCUGGAAGUUUGGACUGCGCAGAGCUCAACACAGCGUGGCAAAGUGGCUGUGGCUAGACUGCCUCUCUGGAUUCCUCGUCACUCAGCAGGGCAUCUCUGAGAGAAAUGCC [G7U G54C],0.49
19,UACGUAGGUGGUUUUCCCCUUAUAGUGCUAAGGGGGCCUGGAAGUUUGGACUGGGCAGAGCUCAACACAGCGUGGCAAAGUGGCUGUGGCUAGUCUGCCUCUCUGGAUUCCUCGUCACUCAGCAGGGCAUCUCUGAGAGAAAUGCC [G21U A94U],0.39
